In patent US20160215035A1:
Read-outs that look alike come from different tables or passages of the source.

How the values were obtained:
Assay in all cases: cell-based or functional assay
IL-4Rα [1] = molecular target: IL-4Rα (UniProt P24394)
Type I IL-4R = Type I IL-4R (UniProt P24394)
IL-4Rα [2] = molecular target: IL-4Rα (UniProt P24394); remark: listed apart in the source

Sequence of UniProt P24394 (P24394 26-825 limits assumed): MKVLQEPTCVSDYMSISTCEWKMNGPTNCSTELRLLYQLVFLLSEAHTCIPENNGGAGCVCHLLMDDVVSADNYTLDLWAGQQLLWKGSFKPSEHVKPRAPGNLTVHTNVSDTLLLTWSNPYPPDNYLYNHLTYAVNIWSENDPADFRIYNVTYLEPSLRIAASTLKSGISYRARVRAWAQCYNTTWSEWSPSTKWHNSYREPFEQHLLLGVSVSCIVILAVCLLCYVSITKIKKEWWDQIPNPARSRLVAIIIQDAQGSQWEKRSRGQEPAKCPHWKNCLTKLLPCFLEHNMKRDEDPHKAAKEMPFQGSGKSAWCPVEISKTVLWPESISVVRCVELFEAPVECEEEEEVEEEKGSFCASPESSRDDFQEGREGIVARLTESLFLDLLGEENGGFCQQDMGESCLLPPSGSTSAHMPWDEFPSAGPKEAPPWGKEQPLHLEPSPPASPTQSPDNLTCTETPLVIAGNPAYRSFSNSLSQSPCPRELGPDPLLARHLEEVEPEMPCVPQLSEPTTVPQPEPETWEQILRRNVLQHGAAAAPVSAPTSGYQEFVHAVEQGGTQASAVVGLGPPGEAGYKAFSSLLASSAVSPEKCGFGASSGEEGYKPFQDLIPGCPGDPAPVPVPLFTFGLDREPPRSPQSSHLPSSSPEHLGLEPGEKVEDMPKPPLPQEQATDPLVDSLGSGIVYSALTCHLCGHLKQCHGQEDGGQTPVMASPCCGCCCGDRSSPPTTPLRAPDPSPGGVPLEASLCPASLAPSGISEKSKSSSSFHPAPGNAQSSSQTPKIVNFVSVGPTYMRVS

| IC50 (ng/mL), cell count by trypan blue exclusion, KCCL871 cells (IL-4Rα [2]) [ng/mL] | IC50 (ng/mL), cell count by trypan blue exclusion, KCCOR891 cells (IL-4Rα [2]) [ng/mL] | IC50 (ng/mL), cell count by trypan blue exclusion, KCCTCM901 cells (IL-4Rα [2]) [ng/mL] | IC50 (ng/mL), cell count by trypan blue exclusion, YCUM862 cells (IL-4Rα [2]) [ng/mL] | IC50 (ng/mL), cell count by trypan blue exclusion, YCUM911 cells (IL-4Rα [2]) [ng/mL] | IC50 (ng/mL), cell count by trypan blue exclusion, YCUT891 cells (IL-4Rα [2]) [ng/mL] | IC50, colony formation assay on U 251 cells (10 days) (IL-4Rα [2]) [ng/mL] | Molecule | IC50 (ng/mL), cell count by trypan blue exclusion, KCCL871 cells (IL-4Rα [1]) [ng/mL] | IC50 (ng/mL), cell count by trypan blue exclusion, KCCOR891 cells (IL-4Rα [1]) [ng/mL] | IC50 (ng/mL), cell count by trypan blue exclusion, KCCTCM901 cells (IL-4Rα [1]) [ng/mL] | IC50 (ng/mL), cell count by trypan blue exclusion, YCUM862 cells (IL-4Rα [1]) [ng/mL] | IC50 (ng/mL), cell count by trypan blue exclusion, YCUM911 cells (IL-4Rα [1]) [ng/mL] | IC50 (ng/mL), cell count by trypan blue exclusion, YCUT891 cells (IL-4Rα [1]) [ng/mL] | IC50, inhibition of [3H]-thymidine incorporation in HH cells (48 h) (Type I IL-4R) [ng/mL] | IC50, 5-day cell viability assay on Daudi cells, with 100x excess IL-4 (IL-4Rα [2]) [ng/mL] | IC50, 5-day cell viability assay on Daudi cells, without excess IL-4 (IL-4Rα [2]) [ng/mL] | IC50, 5-day cell viability assay on U 251 cells, with 100x excess IL-4 (IL-4Rα [2]) [ng/mL] | IC50, 5-day cell viability assay on U 251 cells, without excess IL-4 (IL-4Rα [2]) [ng/mL] | IC50, killing of Daudi cells (viable cell count, trypan blue exclusion, 5 days) (IL-4Rα [2]) [ng/mL] | IC50, killing of U 251 cells (viable cell count, trypan blue exclusion, 5 days) (IL-4Rα [2]) [ng/mL] |
| --- | --- | --- | --- | --- | --- | --- | --- | --- | --- | --- | --- | --- | --- | --- | --- | --- | --- | --- | --- | --- |
|  |  |  |  |  |  |  | cpIL4-PE (from UniProt P11439 278-633) | 1.5 | 9 | 0.7 | 0.6 | 4.5 | 8 | 362 |  |  |  |  |  |  |
| 0.5 | 0.15 | 1 | 1.1 | 0.2 | 11 | 5 | cpIL-4BAD fusion protein (protein) MDTTEKETFCRAATVLRQFYSHHEKDTRCLGATAQQFHRHKQLIRFLKRLDRNLWGLAGLNSCPVKEANQSTLENFLERLKTIMREKYSKCSSGGNGGHKCDITLQEIIKTLNSLTEQKTLCTELTVTDIFAASGSFQIPEFEPSEQEDSSSAERGLGPSPAGDGPSGSGKHHRQAPGLLWDASHQQEQPTSSSHHGGAGAVEIRSRHSAYPAGTEDDEGMGEEPSPFRGRSRAAPPNLWAAQRYGRELRRMSDEFVDSFKKGLPRPKSAGTATQMRQSSSWTRVFQSWWDRNLGRGSSAPSQ |  |  |  |  |  |  |  | > 1000 | 0.3 | > 1000 | 0.3 | 0.1 | 0.6 |
